Where two headings read alike, the source gives them in different places. Non-standard residues stand in square brackets, D forms with d. Residues, ends and D or L forms follow the SMILES beside them. *: point of attachment. Dolaproine = CO[C@@H]([C@@H]1CCCN1)[C@@H](C)C(=O)O; Dil = CC[C@H](C)[C@H](NC)[C@@H](CC(=O)O)OC; X1 = C[C@@H](N*)[C@@H](O)c1ccccc1; NMeV = CN[C@H](C(=O)O)C(C)C
Experiments:
[1] = test system: HCT15 (high Pgp expression); test: Cell viability assay (crystal violet staining), payloads, HCT15; format: cell-based; conditions: HCT15, 48 hours incubation, read-out: IC 50 HCT15
Method: (§1) The cytotoxic activity of A1B1 cytolysin and MMAE payloads was analyzed via cell-viability assay using the colorectal cancer cell lines HCT15 (high Pgp expression) and HCT116 (low Pgp expression). The day before the assay, cells were seeded and cultivated overnight at 37 °C. Titration of the payloads diluted in medium was added to the cells and incubated for 48 hours at 37 °C. Finally, cell viability was analyzed by crystal violet staining.

[2] = test system: HCT116 (low Pgp expression); test: Cell viability assay (crystal violet staining), payloads, HCT116; format: cell-based; conditions: HCT116, 48 hours incubation
Method: as §1

[3] = molecular target: Fibroblast activation protein (FAP) on FAP-expressing HT1080-FAP cells (UniProt Q12884); test: cell-based or functional assay
[4] = molecular target: Fibroblast activation protein (FAP) on FAP-expressing HT1080-FAP cells (UniProt Q12884); test: flow cytometry on HT1080-FAP cells, PE-labeled anti-human Fc secondary antibody, MFI
HT1080-FAP cells = test: ADC cytotoxic activity, cell viability assay, HT1080-FAP; format: cell-based
Method: (§2) OMTX105 cytotoxic activity was analyzed via cell viability assay using HT1080-FAP and HT1080-WT cells. […] Here, a concentration of half-maximal killing of 64 pM for OMTX105 was determined compared to 750 pM for OMTX705. […] Specificity ratio between both cell lines was 1,205 for OMTX105 while for OMTX705 the value was 82 (Figure 3). Table 4: Comparative in vitro binding and cytotoxic activity values of OMTX105 and OMTX705 ADCs

HT1080-WT cells = test: ADC cytotoxic activity, cell viability assay, HT1080-WT; format: cell-based; conditions: read-out: Concentration of half maximal killing HT1080 WT
Method: as §2

[5] = test system: HT1080-FAP transfected cells; test: In vivo efficacy and tolerability in the HT1080-FAP tumor model with huPBMCs; set-up: species or system female NOD scid gamma (NSG) mice
Method: To evaluate the in vivo efficacy of OMTX1 05 and OMTX705, both ADCs were tested in female NOD scid gamma (NSG) mice co-inoculated with HT1080-FAP transfected cells and huPBMCs.
After 7 days, mice were randomized according to tumor size in the different treatment groups. Treatments with OMTX105 and OMTX705 as single agents were initiated, both with a weekly intravenous dose of 20 mg/kg over 3 weeks.
Tumor volume and animal weight were measured 3 times a week to monitor the evolution of tumor growth and weight change upon treatment.

[6] = test system: Panc007 pancreatic ductal adenocarcinoma patient derived xenograft; test: In vivo efficacy and tolerability in the Panc007 patient-derived xenograft model; set-up: species or system female Athymic nude-Foxn1 (nude/nude) mice; conditions: for TGI value: day 28
Method: The antitumor activity of OMTX105 vs OMTX705 was evaluated in the Panc007 pancreatic ductal adenocarcinoma patient derived xenograft mode in female Athymic nude-Foxn1 (nude/nude) mice.
Both OMTX105 and OMTX705 were administered intravenously at 5 and 20 mg/kg once a week for 4 weeks.

[7] = molecular target: T1, Fibroblast activation protein (FAP) on FAP-expressing HT1080-FAP cells (UniProt Q12884 1-760, limits assumed); test: cell-based or functional assay
T1 sequence (looked up): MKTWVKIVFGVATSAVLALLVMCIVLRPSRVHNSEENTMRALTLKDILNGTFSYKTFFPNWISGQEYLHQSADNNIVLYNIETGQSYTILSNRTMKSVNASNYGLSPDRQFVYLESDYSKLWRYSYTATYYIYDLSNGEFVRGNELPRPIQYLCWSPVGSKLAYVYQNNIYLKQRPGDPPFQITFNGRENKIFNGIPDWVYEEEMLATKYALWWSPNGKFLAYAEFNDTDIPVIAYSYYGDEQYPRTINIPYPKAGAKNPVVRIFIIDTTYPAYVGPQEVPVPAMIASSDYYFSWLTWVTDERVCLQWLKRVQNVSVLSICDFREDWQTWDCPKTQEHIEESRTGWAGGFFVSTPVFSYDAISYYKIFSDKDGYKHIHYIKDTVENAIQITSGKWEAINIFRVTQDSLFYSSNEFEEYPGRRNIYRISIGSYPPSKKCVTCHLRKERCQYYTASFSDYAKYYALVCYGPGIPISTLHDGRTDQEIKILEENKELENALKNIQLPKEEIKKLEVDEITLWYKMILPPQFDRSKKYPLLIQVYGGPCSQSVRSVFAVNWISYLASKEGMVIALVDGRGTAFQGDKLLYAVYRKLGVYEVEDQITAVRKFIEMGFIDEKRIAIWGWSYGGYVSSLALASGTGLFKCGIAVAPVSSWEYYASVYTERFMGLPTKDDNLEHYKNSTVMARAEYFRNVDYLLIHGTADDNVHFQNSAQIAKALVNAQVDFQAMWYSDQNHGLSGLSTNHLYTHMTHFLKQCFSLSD

[8] = molecular target: T1, Fibroblast activation protein (FAP) on …; test: flow cytometry on HT1080-FAP cells, PE-labeled anti-human Fc secondary antibody, MFI
[9] = weekly intravenous dose of 20 mg/kg over 3 weeks
[10] = 5 and 20 mg/kg intravenously once a week for 4 weeks

## CC[C@H](C)[C@@H]([C@@H](CC(=O)N1CCC[C@H]1[C@H](OC)[C@@H](C)C(=O)N[C@H](C)[C@@H](O)c1ccccc1)OC)N(C)C(=O)[C@@H](NC(=O)[C@@H](NC)C(C)C)C(C)C [MMAE, Monomethyl auristatin E] (H-[NMeV]V[Dil][Dolaproine]-X1)
[1]
  IC50: 39.5 ± 10.1 nM
[1]; Homo sapiens, HCT-15, 48 h
  IC50: 40 nM
[2]
  IC50: 2.5 ± 0.4 nM
[2]; Homo sapiens, HCT-116, 48 h
  IC50: 3 nM

## OMTX705 antibody-drug conjugate (anti-FAP monoclonal antibody conjugated to a cytolysin payload)
[3]
  Concentration of half maximal killing, HT1080FAP (cell viability assay): 750 pM
  Specificity ratio between HT1080WT and HT1080FAP (cell viability assay): 82
[4]
  EC50: 0.204 nM

B1: OMTX105: anti-FAP IgG antibody conjugated with the drug-linker vcMMAE, through thiol-based reaction on the cysteine residues of the antibody (conjugate)
heavy: QVQLVQSGAEVKKPGASVKVSCKASGYTFTENIIHWVRQAPGQGLEWMGWFHPGSGSIKYNEKFKDRVTMTADTSTSTVYMELSSLRSEDTAVYYCARHGGTGRGAMDYWGQGTLVTVSSASTKGPSVFPLAPSSKSTSGGTAALGCLVKDYFPEPVTVSWNSGALTSGVHTFPAVLQSSGLYSLSSVVTVPSSSLGTQTYICNVNHKPSNTKVDKKVEPKSCDKTHTCPPCPAPPVAGPSVFLFPPKPKDTLMISRTPEVTCVVVDVSHEDPEVKFNWYVDGVEVHNAKTKPREEQYNSTYRVVSVLTVLHQDWLNGKEYKCKVSNKGLPSSIEKTISKAKGQPREPQVYTLPPSRDELTKNQVSLTCLVKGFYPSDIAVEWESNGQPENNYKTTPPVLDSDGSFFLYSKLTVDKSRWQQGNVFSCSVMHEALHNHYTQKSLSLSPGK
light: DIQMTQSPSSLSASVGDRVTITCRASKSVSTSAYSYMHWYQQKPGKAPKLLIYLASNLESGVPSRFSGSGSGTDFTLTISSLQPEDFATYYCQHSRELPYTFGQGTKLEIKRTVAAPSVFIFPPSDEQLKSGTASVVCLLNNFYPREAKVQWKVDNALQSGNSQESVTEQDSKDSTYSLSSTLTLSKADYEKHKVYACEVTHQGLSSPVTKSFNRGEC
HT1080-FAP cells; HT1080-FAP cells, read-out: Concentration of half maximal killing HT1080FAP
  EC50: 0.064 ± 0.033 nM
HT1080-FAP cells; ratio of half maximal killing concentrations, HT1080-WT to HT1080-FAP
  Specificity ratio between HT1080WT and HT1080FAP: 1,205
HT1080-WT cells
  EC50: 77.2 nM
[5]; 20 mg/kg, 21-day test period
  tolerability: well tolerated
[5]; [9]
  complete response: complete response in this model at day 7
  percentage tumor growth inhibition (TGI): 104.98%
[5]; weekly intravenous dose of 20 mg/kg, 21-day test period
  weight loss, toxic effect: No weight loss, nor toxic effect
[6]; 5 mg/kg intravenously once a week for 4 weeks
  TGI value: 85%
[6]; 20 mg/kg intravenously once a week for 4 weeks
  TGI value: 136%
[6]; [10]
  adverse effects or animal death: no adverse effects or animal death
  tolerability (body weight data and clinical observations): well tolerated
[6]; both 5 mg/kg and 20 mg/kg, after 56 days
  weight loss: no weight loss observed

B2: OMTX105 antibody-drug conjugate (anti-FAP IgG antibody conjugated with the drug-linker vcMMAE) (antibody, V domains shown)
VH: QVQLVQSGAEVKKPGASVKVSCKASGYTFTENIIHWVRQAPGQGLEWMGWFHPGSGSIKYNEKFKDRVTMTADTSTSTVYMELSSLRSEDTAVYYCARHGGTGRGAMDYWGQGTLVTVSS
VL: DIQMTQSPSSLSASVGDRVTITCRASKSVSTSAYSYMHWYQQKPGKAPKLLIYLASNLESGVPSRFSGSGSGTDFTLTISSLQPEDFATYYCQHSRELPYTFGQGTKLEIKR
modifications: drug-linker vcMMAE on cysteine residues of the antibody (non-site specific, thiol-based); DAR 3.92; the cysteines are not stated
notes: also called OMTX105 ADC; anti-FAP MMAE ADC
[7]
  Specificity ratio between HT1080WT and HT1080FAP (cell viability assay): 1200
[8]
  EC50: 0.255 nM
